According to US20040077031:

System: MAS (methionine-alanine-serine) trimeric peptide

recombinant human methionine aminopeptidase type 1 (MetAP1) with N-terminal histidine tag
enzymatic cleavage of peptide substrate: showed enzymatic activity in cleaving a tripeptide MAS substrate
